# Like-named read-outs stand apart in the source and are kept apart here.
# T1: Lto1p (yeast, UniProt P53846 1-162)
# T1 sequence: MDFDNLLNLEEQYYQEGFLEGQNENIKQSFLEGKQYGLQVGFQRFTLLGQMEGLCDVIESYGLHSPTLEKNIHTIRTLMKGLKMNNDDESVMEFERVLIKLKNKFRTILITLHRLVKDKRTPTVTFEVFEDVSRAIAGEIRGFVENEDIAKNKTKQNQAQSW
# T2: Sil1p (S. cerevisiae, UniProt Q08199 20-421)
# T2 sequence: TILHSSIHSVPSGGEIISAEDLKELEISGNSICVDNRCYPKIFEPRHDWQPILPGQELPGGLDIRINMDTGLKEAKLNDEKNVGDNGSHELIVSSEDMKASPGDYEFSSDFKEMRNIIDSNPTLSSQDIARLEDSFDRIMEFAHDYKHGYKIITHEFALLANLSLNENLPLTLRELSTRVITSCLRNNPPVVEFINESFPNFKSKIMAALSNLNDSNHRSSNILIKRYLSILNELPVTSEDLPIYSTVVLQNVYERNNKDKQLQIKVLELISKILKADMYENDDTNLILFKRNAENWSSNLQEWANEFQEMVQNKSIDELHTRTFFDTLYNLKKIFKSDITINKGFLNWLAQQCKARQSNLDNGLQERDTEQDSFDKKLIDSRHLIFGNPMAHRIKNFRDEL
# T3: Scj1p (S. cerevisiae, UniProt P25303 22-377)
# T3 sequence: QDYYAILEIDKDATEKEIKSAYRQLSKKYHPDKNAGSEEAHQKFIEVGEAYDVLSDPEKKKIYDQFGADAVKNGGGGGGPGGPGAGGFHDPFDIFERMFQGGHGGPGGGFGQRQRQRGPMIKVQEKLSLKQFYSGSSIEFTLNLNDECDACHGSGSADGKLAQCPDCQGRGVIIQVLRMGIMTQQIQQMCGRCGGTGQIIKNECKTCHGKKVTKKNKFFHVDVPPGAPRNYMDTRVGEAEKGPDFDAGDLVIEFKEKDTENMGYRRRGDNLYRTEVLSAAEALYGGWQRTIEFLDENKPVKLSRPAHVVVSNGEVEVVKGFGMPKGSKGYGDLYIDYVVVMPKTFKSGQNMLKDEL
# B1: Yae1p (natural protein)
# chain: MSNTWDDVWASDSDVETERSPDLVKLRENHSKRGYLDGIVSSKEEKLQEGFNDGFPTGAKLGKQVGIIMGILLGLRTRFGDEDEDLSKAYIDAQKELRINKVLSKSIFDPNFDLQEKHPLITKWTDIANTYCEKYHVPSIQ
# B2: Sec20p (natural protein)
# chain: MVVTFLQDLEVLQDALLNNLQKLSAISRRKESGESKHDNKDSFAAIANEHNDEEEEIEFEDLVNIIESKVSDFESVLKCSIVEMTYKYPELKLQWEKSPRYDQCDKLHIVKLDKQMNEDIYAQLVEELDFVLQFVDWFYCYRLKVKEILRQHHKRDLAWNDEKRDRAIKFHAVDYDKLHQGTSSSSSLTSTSMEKASTREKLLSKTKQLTNNLVRGNQILQSGILQSDLNLDELRAQTNSLTQIDDKYTQFETVFKKTADLVKVLENASHQEKRDVYLSLGFLLCCVSWVLWRRIFKLPVKLGLWLLFKFFKGILVTLGLVKSYAGSSSSLQAPSLVLNAPILATTTTSSATSVEPFASVSAVSSIQRAVDEAVDRIVSHDEL
# B3: Eug1p (natural protein)
# chain: TPGSDLLVLTEKKFKSFIESHPLVLVEFFAPWCLHSQILRPHLEEAASILKEHNVPVVQIDCEANSMVCLQQTINTYPTLKIFKNGRIFDGQVYRGVKITDEITQYMIQLYEASVIYLNSEDEIQPYLENATLPVVINRGLTGLNETYQEVALDLAEDYVFLSLLDSEDKSLSIHLPNTTEPILFDGNVDSLVGNSVALTQWLKVVILPYFTDIEPDLFPKYISSNLPLAYFFYTSEEELEDYTDLFTQLGKENRGQINFIALNSTMFPHHVRFLNMREQFPLFAIHNMINNLKYGLPQLPEEEYAKLEKPQPLDRDMIVQLVKDYREGTAKPIVKSEEIPKEQKSNVYKIVGKTHDDIVHDDDKDVLVKYYATWCIHSKRFAPIYEEIANVLASDESVRDKILIAEVDSGANDILSFPVTGYPTIALYPAGNNSKPIIFNKIRNLEDVFEFIKESGTHHIDGQAIYDKLHQAKDSEVSTEDTVHDEL
# B4: Pdi1p (natural protein)
# chain: PEDSAVVKLATDSFNEYIQSHDLVLAEFFAPWCGHCKNMAPEYVKAAETLVEKNITLAQIDCTENQDLCMEHNIPGFPSLKIFKNSDVNNSIDYEGPRTAEAIVQFMIKQSQPAVAVVADLPAYLANETFVTPVIVQSGKIDADFNATFYSMANKHFNDYDFVSAENADDDFKLSIYLPSAMDEPVVYNGKKADIADADVFEKWLQVEALPYFGEIDGSVFAQYVESGLPLGYLFYNDEEELEEYKPLFTELAKKNRGLMNFVSIDARKFGRHAGNLNMKEQFPLFAIHDMTEDLKYGLPQLSEEAFDELSDKIVLESKAIESLVKDFLKGDASPIVKSQEIFENQDSSVFQLVGKNHDEIVNDPKKDVLVLYYAPWCGHCKRLAPTYQELADTYANATSDVLIAKLDHTENDVRGVVIEGYPTIVLYPGGKKSESVVYQGSRSLDSLFDFIKENGHFDVDGKALYEEAQEKAAEEADADAELADEEDAIHDEL
# How the values were obtained:
# Experiment in all cases: split reporter
# Lto1p = biological target: T1, Lto1p
# Cpr5p [1] = biological target: T4, Cpr5p (S. cerevisiae, UniProt P35176 23-225)
# Kar2p = Kar2p (S. cerevisiae, UniProt P16474 43-682)
# Sil1p = biological target: T2, Sil1p
# Scj1p = biological target: T3, Scj1p
# Cpr5p [2] = biological target: T4, Cpr5p; remark: listed apart in the source
# T4 sequence (P35176 23-225): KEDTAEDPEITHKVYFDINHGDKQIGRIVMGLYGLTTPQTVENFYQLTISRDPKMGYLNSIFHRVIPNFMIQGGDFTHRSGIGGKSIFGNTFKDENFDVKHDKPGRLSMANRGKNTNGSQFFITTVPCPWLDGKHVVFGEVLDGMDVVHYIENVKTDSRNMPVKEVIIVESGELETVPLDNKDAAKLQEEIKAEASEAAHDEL
# Kar2p, sequence (P16474 43-682): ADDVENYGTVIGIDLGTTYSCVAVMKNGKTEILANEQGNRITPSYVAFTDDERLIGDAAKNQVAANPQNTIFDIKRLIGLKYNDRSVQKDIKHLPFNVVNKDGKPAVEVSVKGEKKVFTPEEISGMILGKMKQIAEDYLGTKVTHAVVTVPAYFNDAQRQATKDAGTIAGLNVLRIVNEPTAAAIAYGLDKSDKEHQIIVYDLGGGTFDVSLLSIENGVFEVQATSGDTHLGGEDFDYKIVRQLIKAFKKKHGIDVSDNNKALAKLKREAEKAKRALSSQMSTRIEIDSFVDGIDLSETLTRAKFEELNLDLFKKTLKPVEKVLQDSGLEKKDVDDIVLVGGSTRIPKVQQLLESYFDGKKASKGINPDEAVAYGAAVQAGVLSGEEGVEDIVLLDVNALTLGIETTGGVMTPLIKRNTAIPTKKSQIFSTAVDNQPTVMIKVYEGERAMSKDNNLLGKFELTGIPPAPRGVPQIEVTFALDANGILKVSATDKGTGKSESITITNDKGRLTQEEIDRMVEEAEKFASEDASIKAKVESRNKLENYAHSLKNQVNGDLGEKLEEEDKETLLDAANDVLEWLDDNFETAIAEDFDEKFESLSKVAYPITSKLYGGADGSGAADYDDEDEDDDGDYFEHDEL
binder,measurement,setting,value
B1,normalized interacting score,Lto1p,96%
B2,normalized interacting score,Cpr5p [1],26%
same,normalized interacting score,Kar2p,42%
same,normalized interacting score,Sil1p,32%
B3,normalized interacting score,Scj1p,5%
B4,normalized interacting score,Cpr5p [1],32%
same,normalized interacting score,Cpr5p [2],18%
